US20070167370A1 (UUTECH, published 2007)

Molecular target: T1, human GIP receptor, stably transfected in Chinese hamster lung (CHL) fibroblast cells (human, UniProt P48546 22-466)
T1 sequence (looked up): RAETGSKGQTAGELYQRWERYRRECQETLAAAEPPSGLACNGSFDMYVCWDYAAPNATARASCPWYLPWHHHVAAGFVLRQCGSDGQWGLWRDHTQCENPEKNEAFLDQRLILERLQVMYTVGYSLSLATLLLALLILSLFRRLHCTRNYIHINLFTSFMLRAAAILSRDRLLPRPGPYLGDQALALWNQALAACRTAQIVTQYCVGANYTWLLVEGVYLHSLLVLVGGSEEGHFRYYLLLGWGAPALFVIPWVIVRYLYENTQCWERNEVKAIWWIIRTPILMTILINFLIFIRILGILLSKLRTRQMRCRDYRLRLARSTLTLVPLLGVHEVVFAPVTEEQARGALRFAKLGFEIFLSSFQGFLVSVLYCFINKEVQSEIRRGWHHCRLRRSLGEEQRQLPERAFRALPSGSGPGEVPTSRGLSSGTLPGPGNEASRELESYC
Test: cell-based or functional assay

YAPGTFISDYSIAMDKIHQQDFVNWLLAQKGKKNDWKHNITQ [(Pro^3)GIP]
IC50 of inhibition of GIP-induced cAMP formation (GIP receptor transfected CHL fibroblasts, native GIP 10^-7 M): 2600 nM
